Data set [1] deals with the molecule itself. In words: cryo-EM structure; purified yeast TRiC, 1 mg/ml, with 1 mM ADP and 5 mM MgCl2, 15 min at 30 °C before freezing; five conformational states S1-S5 (closed to open) from one sample; contacts differ between the states.
The target of data set [2] is T1, CCT4 subunit of yeast TRiC/CCT (yeast, UniProt P39078 1-528).
T1 construct: CCT4 subunit of the chaperonin TRiC/CCT, yeast; subunit of the purified hetero-oligomeric complex; Purified according to Zang et al., 2016; source: endogenous, purified from yeast lysate as part of TRiC (calmodulin resin, eluted with 2 mM EGTA)
Described as above. The following applies: both partners purified.

We go through two molecules from publication PMC11894413, “The conformational landscape of TRiC ring-opening and its underlying stepwise mechanism revealed by cryo-EM” (QRB Discovery, 2024).

T1 sequence (P39078 whole entry): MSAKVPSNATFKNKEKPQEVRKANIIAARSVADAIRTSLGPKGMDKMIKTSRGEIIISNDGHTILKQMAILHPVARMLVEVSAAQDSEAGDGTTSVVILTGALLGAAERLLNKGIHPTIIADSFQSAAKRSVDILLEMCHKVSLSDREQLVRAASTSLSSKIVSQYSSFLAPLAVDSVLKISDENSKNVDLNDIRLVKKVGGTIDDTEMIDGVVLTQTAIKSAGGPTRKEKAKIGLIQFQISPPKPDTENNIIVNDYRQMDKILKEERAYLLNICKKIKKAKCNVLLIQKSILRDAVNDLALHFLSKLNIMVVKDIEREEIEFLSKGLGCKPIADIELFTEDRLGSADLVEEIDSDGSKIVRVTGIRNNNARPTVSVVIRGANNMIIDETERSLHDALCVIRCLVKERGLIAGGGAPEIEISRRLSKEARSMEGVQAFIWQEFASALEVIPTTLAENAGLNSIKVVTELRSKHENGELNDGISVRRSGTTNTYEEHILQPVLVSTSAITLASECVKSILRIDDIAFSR

B1: CCT6 subunit of yeast TRiC/CCT (natural protein)
chain: not shown
notes: CCT6 subunit of the chaperonin TRiC/CCT, yeast; subunit of the purified hetero-oligomeric complex; Purified according to Zang et al., 2016; source: endogenous, purified from yeast lysate as part of TRiC (calmodulin resin, eluted with 2 mM EGTA)
In the case of B1, in data set [1], the binding result is on record as “binds”.

B2: CCT2 subunit of yeast TRiC/CCT (natural protein, UniProt P39076 1-527, looked up)
chain: MSVQIFGDQVTEERAENARLSAFVGAIAVGDLVKSTLGPKGMDKLLQSASSNTCMVTNDGATILKSIPLDNPAAKVLVNISKVQDDEVGDGTTSVTVLSAELLREAEKLIDQSKIHPQTIIEGYRLASAAALDALTKAAVDNSHDKTMFREDLIHIAKTTLSSKILSQDKDHFAELATNAILRLKGSTNLEHIQIIKILGGKLSDSFLDEGFILAKKFGNNQPKRIENAKILIANTTLDTDKVKIFGTKFKVDSTAKLAQLEKAEREKMKNKIAKISKFGINTFINRQLIYDYPEQLFTDLGINSIEHADFEGVERLALVTGGEVVSTFDEPSKCKLGECDVIEEIMLGEQPFLKFSGCKAGEACTIVLRGATDQTLDEAERSLHDALSVLSQTTKETRTVLGGGCAEMVMSKAVDTEAQNIDGKKSLAVEAFARALRQLPTILADNAGFDSSELVSKLRSSIYNGISTSGLDLNNGTIADMRQLGIVESYKLKRAVVSSASEAAEVLLRVDNIIRARPRTANRQHM
notes: CCT2 subunit of the chaperonin TRiC/CCT, yeast; subunit of the purified hetero-oligomeric complex; Purified according to Zang et al., 2016; source: endogenous, purified from yeast lysate as part of TRiC (calmodulin resin, eluted with 2 mM EGTA)
Consider B2, for which the binding result in data set [2] and in data set [1] was “binds” in each case.
